According to patent US20190218296A1 (APEXIGEN, published 2019):
Substitutions are numbered along the chain they refer to. Values belong to the binder of their own block, whether it stands above or below them.

Key:
[1] = molecular target: T1, recombinant cynomolgus monkey PD-L1 (cynomolgus monkey, UniProt G7PSE7 19-238); assay: direct ELISA on plate-coated recombinant cynomolgus monkey PD-L1; anti-human Fc-HRP, TMB, OD 650 nm
T1 construct: also called cynomolgus macaque PD-L1
Method: (§1) To assess specificity of the selected clones, a direct ELISA for human and cynomolgus monkey PD-L1 was performed. ELISA plates were coated with recombinant human or cynomolgus monkey PD-L1. […] Serial dilutions of chimeric anti-PD-L1 antibodies were added, and a secondary HRP-conjugated, anti-human Fc-specific antibody was added. After washing, TMB substrate was added and plates were read at OD 650 nm.

recombinant human PD-L1 [2] = molecular target: T2, recombinant human PD-L1 (human, UniProt Q9NZQ7 19-238, limits assumed); assay: ELISA on human PD-L1, OD 650 nm
T2 construct: also called PD-L1 protein
T2 sequence (Q9NZQ7 19-238 limits assumed): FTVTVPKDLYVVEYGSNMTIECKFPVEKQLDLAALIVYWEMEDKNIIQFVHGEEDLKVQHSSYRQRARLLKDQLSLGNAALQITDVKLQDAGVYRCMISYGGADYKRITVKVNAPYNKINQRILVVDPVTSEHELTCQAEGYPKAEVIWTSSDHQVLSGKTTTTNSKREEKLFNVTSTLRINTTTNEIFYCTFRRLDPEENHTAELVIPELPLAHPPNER

recombinant human PD-L1 [3] = molecular target: T2, recombinant human PD-L1; assay: direct ELISA on plate-coated recombinant human PD-L1; anti-human Fc-HRP, TMB, OD 650 nm
Method: as §1

human PD-L1 on cells [4] = molecular target: T3, human PD-L1 on cells (human, UniProt Q9NZQ7 19-290); assay: flow cytometry on monocyte-derived dendritic cells, MFI
T3 construct: whole, on cells; also called HEK-PD-L1 cells; PD-L1-expressing HEK 293 cells
T3 sequence (Q9NZQ7 19-290): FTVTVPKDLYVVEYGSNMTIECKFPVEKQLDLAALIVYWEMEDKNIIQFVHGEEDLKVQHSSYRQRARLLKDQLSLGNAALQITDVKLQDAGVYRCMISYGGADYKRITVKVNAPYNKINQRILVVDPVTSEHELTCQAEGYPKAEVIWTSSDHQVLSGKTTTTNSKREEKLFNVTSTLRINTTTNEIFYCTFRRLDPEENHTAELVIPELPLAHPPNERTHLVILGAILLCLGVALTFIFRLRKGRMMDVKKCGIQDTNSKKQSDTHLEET

human PD-L1 on cells [5] = molecular target: T3, human PD-L1 on cells; assay: flow cytometry on activated CD4 T cells, MFI
human PD-L1 on cells [6] = molecular target: T3, human PD-L1 on cells; assay: flow cytometry on monocyte-derived dendritic cells, saturation fit on a linear axis
human PD-L1 on cells [7] = molecular target: T3, human PD-L1 on cells; assay: flow cytometry on activated CD4 T cells, saturation fit on a linear axis
human PD-L1 on cells [8] = molecular target: T3, human PD-L1 on cells; assay: flow cytometry on human PD-L1 transfected HEK 293 cells; PE anti-human Fc, MFI
Method: Stable human PD-L1 transfected HEK 293 cells (Crown Bio, San Diego, Calif.) were added to 96-well plates (100,000 cells/well) and serial dilution of anti-PD-L1 antibodies or IgG1 isotype control antibody was added in duplicates and plates were incubated for 30 minutes on ice. After washing, a PE-conjugated donkey anti-human Fc specific antibody (Jackson Immunoresearch, West Grove, Pa. 1:200 dilution) was added and plates were further incubated for 15 minutes on ice. After washing, cells were analyzed using a MACS quant flow cytometer.

human PD-L1 on cells [9] = molecular target: T3, human PD-L1 on cells; assay: flow cytometry on monocyte-derived dendritic cells; PE anti-human Fc, MFI
Method: The chimeric PD-L1 antibodies were further assessed for their ability to bind to human myeloid-derived dendritic cells. CD14 monocytes were isolated from PBMC using directly conjugated magnetic beads (Miltenyi) and cultured for 7 days in the presence of GM-CSF (100 ng/ml) and IL-4 (50 ng/ml) (Peprotech) to generate myeloid dendritic cells (mDC). mDC were added to 96-well plates (100,000 cells/well) and serial dilution of anti-PD-L1 antibodies or IgG1 isotype control antibody was added in duplicates and plates were incubated for 30 min on ice. After washing, a PE-conjugated donkey anti-human Fc specific antibody (Jackson Immunoresearch, 1:200 dilution) was added and plates were further incubated for 15 minutes on ice. After washing, cells were analyzed using a MACS quant flow cytometer.

human PD-L1 on cells [10] = molecular target: T3, human PD-L1 on cells; assay: flow cytometry on CD4 T cells activated with anti-CD3; MFI; column head prints only EC50, unit taken from the axis Antibody Concentration (nM)
[11] = molecular target: T4, human PD-L1-his (Sino Biologics) (human, UniProt Q9NZQ7 19-238); assay: competition ELISA: human PD-L1-his coated at 1 µg/ml, antibody dilutions, then human PD-1-mouse-Fc at 1 µg/ml, anti-mouse IgG-HRP, OD 650 nm
T4 construct: Bought from Sino Biologics; not shown: his tag
T4 sequence (Q9NZQ7 19-238 limits assumed): as the sequence (Q9NZQ7 19-238 limits assumed) above
Method: Plates were coated with 100 μl of 1 μg/ml human PD-L1-his (Sino Biologics, Beijing, China) in carbonate-bicarbonate buffer overnight. After washing, plates were blocked with PBS 0.05% Tween-20 for 1 hour, and serial dilutions of anti-PD-L1 human chimeric antibody or IgG1 isotype control antibody was added. […] After washing, goat anti-mouse IgG (H+L)-HRP antibody (Jackson ImmunoResearch West Grove, Pa.) and plates were further incubated for 1 hour. After washing, TMB substrate (SurModics, Eden Prairie, Minn.) was added. The reaction was stopped using stop solution (SurModics) and plates were read at OD=650 nanometer.

human PD-L1 on cells [12] = molecular target: T3, human PD-L1 on cells; assay: flow cytometry on HEK-PD-L1 cells; PE anti-human Fc, MFI
human PD-L1 on cells [13] = molecular target: T3, human PD-L1 on cells; assay: flow cytometry on HEK-PD-L1 cells, saturation fit on a linear axis; column head prints only Kd, unit taken from the axis Ab (nM)
human PD-L1 on cells [14] = molecular target: T3, human PD-L1 on cells; assay: flow cytometry on HEK PD-L1 cells, MFI
human PD-L1 on cells [15] = molecular target: T3, human PD-L1 on cells; assay: flow cytometry on HEK PD-L1 cells, saturation fit on a linear axis
recombinant human PD-L1 [16] = molecular target: T2, recombinant human PD-L1; assay: competition ELISA: PD-L1 coated, serial dilutions of the antibody, then biotinylated Atezolizumab at 1 µg/ml, streptavidin-HRP, OD 650 nm

T1 sequence (G7PSE7 entry or part of it limits assumed): as the sequence (Q9NZQ7 19-238 limits assumed) above, with A33T, A34S, S62N, R68Q, Q82R, F173L, T185A, T192I, H215L counted along it

B2: h15E9_HZD1 (antibody, V domains shown)
VH: EVQLVESGGGLVQPGGSLRLSCAASGFDISNYWMSWVRQAPGKGLEWVGIISTGGNTWYASWVKGRFTISRDNSKNTLYLQMNSLRAEDTAVYYCARVVIYGGTTSSFNLWGQGTLVTVSS
VL: DIQMTQSPSSLSASVGDRVTITCQSSQNVYNKIRLSWYQQKPGKAPKELIYAASSLASGVPSRFSGSGSGTEFTLTISSLQPEDFATYYCQGGYSGPIYAFGGGTKVEIK
notes: also called humanized 15E9 HZD1
EC50 (recombinant human PD-L1 [2]): 0.267 µg/mL

B4: chimeric anti-PD-L1 antibody 43G2 (antibody, human IgG1, V domains shown)
VH: QSVEESGGRLVTPGTPLTLTCTVSGFSLSSYAMGWVRQAPGEGLEYIGFIDTHGSAYYATWAKGRFTISRTSTTVDLKITSPTTEDTATYFCARNVWTNAGYFNLWGPGTLVTVSS
VL: DVVMTQTPSSVSAAVGGTVTIKCQASQNIYTNLAWYQQKPGQPPKLLIYSASTLASGVPSRFKGSGSGTQFTLTISDLECADAATYYCQTYGALIINGGAFGGGTEVVVK
EC50 (read off the curve) [1]: ~0.005 µg/mL
EC50 (read off the curve) (recombinant human PD-L1 [3]): ~0.006 µg/mL
EC50 (human PD-L1 on cells [9]): 1.6 nM
EC50 (human PD-L1 on cells [10]): 7.7 nM

B5: h9A9-HZD1 (antibody, V domains shown)
VH: EVQLVESGGGLVQPGGSLRLSCAASGIDLSGYWMSWVRQAPGKGLEWVGIVDNDGSAYYASWVNGRFTISRDNSKNTLYLQMNSLRAEDTAVYYCARQSGDWTFDLWGQGTLVTVSS
VL: DIQMTQSPSTLSASVGDRVTITCQASQSIGRWLSWYQQKPGKAPKLLIYQASKLASGVPSRFSGSGSGTEFTLTISSLQPDDFATYYCQNNYDIIAYGNAFGGGTKVEIK
notes: also called humanized 9A9 HZD1
EC50 (recombinant human PD-L1 [2]): 0.0159 µg/mL

B7: chimeric anti-PD-L1 antibody 51D5 (antibody, human IgG1, V domains shown)
VH: QSVEESGGRLVTPGTPLTLTCIVSGFSLSSYWMSWVRRAPGKGLEWIGYINGGSGNPYYASWAKGRFTISKTSTTVDLKITSPTTEDTATYFCARGGESDDYVYGRYGLDPWGPGTLVTVSS
VL: AYDMTQTPASVSEPVGGTVTIKCQASQSISSWLSWYQQKPGQPPKLLIYDASKLASGVPSRFSGSGSGTQFTLTISDLECDDAATYYCQQDYSSYNVDNTFGGGTEVVVK
notes: also called chimeric 51D5; c51D5
IC50 (read off the curve) [11]: ~0.2 µg/mL
EC50 (recombinant human PD-L1 [2]): 0.0117 µg/mL
EC50 (human PD-L1 on cells [4]): 1.12 nM
EC50 (human PD-L1 on cells [5]): 1.03 nM
Kd (human PD-L1 on cells [6]): 0.5 nM
EC50 (read off the curve) (human PD-L1 on cells [12]): ~1 nM
Kd (human PD-L1 on cells [7]): 0.025 nM
Kd (human PD-L1 on cells [13]): 0.91 nM
EC50 (human PD-L1 on cells [14]): 0.32 nM
Kd (human PD-L1 on cells [15]): 0.16 nM

B8: chimeric anti-PD-L1 antibody 23D12 (antibody, human IgG1, V domains shown)
VH: QSVEESGGRLVTPGTPLTLTCTVSGFSLSNYVMGWVRQAPGKGLEYIGIISNSDNTYYATWATGRFTISKTSTTVDLKMTSLTTEDTATYFCARVDTYYNDFNLWGPGTLVTVSS
VL: QVLTQTPSSVEAAVGGTVTIKCQASEDIERYLAWYQQKPGQPPKQLIYDASKLASGVSSRFKGSGSGTEFTLTISGVQCDDAATYYCQHGYIYSSGNPFGGGTEVVVK
EC50 (read off the curve) [1]: ~0.006 µg/mL
EC50 (read off the curve) (recombinant human PD-L1 [3]): ~0.007 µg/mL
EC50 (human PD-L1 on cells [9]): 1.7 nM
EC50 (human PD-L1 on cells [10]): 1.3 nM

B9: chimeric anti-PD-L1 antibody 27H2 (antibody, human IgG1, V domains shown)
VH: QSLEESGGDLVKPGASLTLTCTASGFSFSSGDYMCWVRQAPGKGLEGIACIYGGSSGSTYYANWAKGRFTISKTSSTTVTLQMTSLAAADTATYFCARDFRDVGYGYASFRLWGPGILVTVSS
VL: DIVMTQTPASVSEPVGGTVTIKCQASQSISSWLSWYQQKPGQPPKLLIYGASNLESGVSSRFKGSGSGTEYTLTISDLECADAATYYCQSNYGSSSSSLNAFGGGTEVVVK
IC50 (read off the curve) [11]: ~0.02 µg/mL
binding result [1]: no binding (tested: 1000 ng/ml)
EC50 (human PD-L1 on cells [10]): 0.75 nM

B10: h51D5_HZD1 (antibody, V domains shown)
VH: EVQLVESGGGLVQPGGSLRLSCAASGFSLSSYWMSWVRRAPGKGLEWVGYINGGSGNPYYASWAKGRFTISRDNSKNTLYLQMNSLRAEDTAVYYCARGGESDDYVYGRYGLDPWGQGTLVTVSS
VL: DIQMTQSPSTLSASVGDRVTITCQASQSISSWLSWYQQKPGKAPKLLIYDASKLASGVPSRFSGSGSGTEFTLTISSLQPDDFATYYCQQDYSSYNVDNTFGGGTKVEIK
notes: also called humanized 51D5 HZD1
EC50 (recombinant human PD-L1 [2]): 0.0156 µg/mL

B12: chimeric anti-PD-L1 antibody 11B11 (antibody, human IgG1, V domains shown)
VH: QSVEESGGRLVTPGGTLTLTCTASGFSLSNYTMAWVRQAAGKGLEWIGYINTGGSPYYASWAKGRFTISRSSTTVDLKMTSLTTEDTATYFCARNVDGAWNYLNLWGPGTLVTVSS
VL: AYDMTQTPASVEVVVGGTVTIKCQASETINTYLSWYQQKPGQRPRLLIYAASNLASGVPSRFSGSGSGTEFTLTISGVQCADAATYYCQQGINSNVGNTFGGGTEVVVK
binding result (recombinant human PD-L1 [16]): binds

Further lines, results first:

binding result [1]: no binding (tested: 1000 ng/ml)
EC50 (recombinant human PD-L1 [2]): 0.0138 µg/mL
EC50 (read off the curve) (recombinant human PD-L1 [3]): ~0.004 µg/mL
EC50 (human PD-L1 on cells [4]): 0.9 nM
EC50 (human PD-L1 on cells [5]): 0.756 nM
Kd (human PD-L1 on cells [6]): 0.42 nM
Kd (human PD-L1 on cells [7]): 0.026 nM
EC50 (human PD-L1 on cells [8]): 0.58 nM
EC50 (human PD-L1 on cells [9]): 1.1 nM
B1: chimeric anti-PD-L1 antibody 15E9 (antibody, human IgG1, V domains shown)
VH: QSVEESGGRLVTPGTPLTLTCTVSGFDISNYWMSWVRQAPGKGLEYIGIISTGGNTWYASWVKGRFTISKTSTTVDLKMTSLTTEDTATYFCVRVVIYGGTTSSFNLWGPGTLVTVSS
VL: QVLTQTASPVSAAVGGTVTINCQSSQNVYNKIRLSWFQQKSGQPPKELIYAASSLASGVPSRFKGSGSGTEFTLTISDLECDDAATYYCQGGYSGPIYAFGGGTEVVVK

EC50 (recombinant human PD-L1 [2]): 1.62 µg/mL
B3: h15E9_HZD2 (antibody, V domains shown)
VH: B2 VH
VL: B2 VL with E48R
notes: also called humanized 15E9 HZD2

EC50 (recombinant human PD-L1 [2]): 0.0126 µg/mL
B6: h9A9-HZD2 (antibody, V domains shown)
VH: B5 VH with I27F, L29V
VL: B5 VL
notes: also called humanized 9A9 HZD2

EC50 (recombinant human PD-L1 [2]): 0.0169 µg/mL
B11: h51D5_HZD2 (antibody, V domains shown)
VH: B10 VH with R39Q
VL: B10 VL
notes: also called humanized 51D5 HZD2
